Measured values reported in publication PMC5705181 (Science (New York, N.Y.), 2017).

What was measured:
P5C reductase = P5C reductase (Clostridioides difficile, UniProt Q180C5); experiment: spectrophotometric assay; type: biochemical; conditions: mere turnover
purified protein [1] = substrate: C[C@@H](O)CO; experiment: purified protein; conditions: activated by PD-AE, SAM, 5-deazariboflavin; anaerobic
purified protein [2] = substrate: C[C@H](O)CO; experiment: purified protein; conditions: activated by PD-AE, SAM, 5-deazariboflavin; anaerobic
purified protein [3] = substrate: O=C(O)[C@@H]1C[C@@H](O)CN1; experiment: purified protein; type: biochemical, Clostridioides difficile; conditions: activated by t4LHypD-AE, SAM, acriflavine; anaerobic

For `O=C(O)[C@@H]1CCCN1` [L-proline], the spectrophotometric assay (P5C reductase; reverse direction (interconversion with P5C)) was “P5C reductase could interconvert P5C and L-proline”.

For `O=C(O)[C@@H]1CCC=N1` [Δ^1-pyrroline-5-carboxylate], the spectrophotometric assay (P5C reductase; NADH as reductant in the coupled assay) was “P5C reductase could interconvert P5C and L-proline”.

B1: PD (propanediol dehydratase, GRE Cluster 16) (Roseburia inulinivorans) (protein)
chain: MGNYDSTPIAKSDRIKRLVDHLYAKMPEIEAARAELITESFKATEGQPVVMRKARAFEHILKNLPIIIRPEELIVGSTTIAPRGCQTYPEFSYEWLEAEFETVETRSADPFYISEETKKRLLAADAYWKGKTTSELATSYMAPETLRAMKHNFFTPGNYFYNGVGHVTVQYETVLAIGLNGVKEKVRKEMENCHFGDADYSTKMCFLESILISCDAVITYANRYAKMAEEMAEKETDAARRQELLTIARVCKNVPEFPAESFQEACQSFWFIQQVLQIESSGHSISPGRFDQYMYPYYEKDLKEGSLTREYAQELIDCIWVKLNDLNKCRDAASAEGFAGYSLFQNLIVGGQTVQGRDATNDLSFMCITASEHVFLPMPSLSIRVWHGSSKALLMRAAELTRTGIGLPAYYNDEVIIPALVHRGATMDEARNYNIIGCVEPQVPGKTDGWHDAAFFNMCRPLEMVFSNGYDNGEIASIQTGNVESFQSFDEFMEAYRKQMLYNIELMVNADNAIDYAHAKLAPLPFESCLVDDCIKRGMSAQEGGAIYNFTGPQGFGIANVADSLYTIKKLVFEEKRITMGELKKALEMNYGKGLDATTAGDIAMQVAKGLKDAGQEVGPDVIANTIRQVLEMELPEDVRKRYEEIHEMILELPKYGNDIDEVDELAREAAYFYTRPLETFKNPRGGMYQAGLYPVSANVPLGAQTGATPDGRLAHTPVADGVGPTSGFDISGPTASCNSVAKLDHAIASNGTLFNMKMHPTAMAGEKGLESFISLIRGYFDQQGMHMQFNVVDRATLLDAQAHPEKYSGLIVRVAGYSALFTTLSKSLQDDIIKRTEQADNR
B1 showed a Km (purified protein [1]) of 44 ± 4 mM, a kcat (purified protein [1]) of 330 ± 40 s⁻¹ and a Km (purified protein [2]) of 8 ± 1 mM. The kcat (purified protein [2]) was 1500 ± 100 s⁻¹.

B2: t4LHypD (trans-4-hydroxy-L-proline dehydratase, GRE Cluster 15) (Clostridioides difficile) (protein)
chain: MARGTFERTKKLREESINAEPHISIERAVLMTEAYKKYEGSVEIPVLRALSFKHYIENRTLSINDGELIVGEKGDSPNGAPTYPEICCHTMEDLEVMHNRDIINFSVSEEARKIHKEEIIPFWKKRQTRDKIINAMTPEWLAAYEAGMFTEFMEQRAPGHTVCGDTIYKKGFLDLKKDIEARLKELDFLNDLDAYNKKADLEAMAIACDAMVILGKRYAEKARQMAEEETDEAKKKDLLLIAETCDVVPAHKPETYHQAIQMYWFVHIGVTTELNIWDAFTPGRLDQHLNPFYERDVENGILDRDRAQELLECLWVKFNNQPAPPKVGITLKESSTYTDFANINTGGINPDGQDGVNEVSYIILDVMDEMKLIQPSSNVQISKKTPQKFLKRACEISRKGWGQPAFYNTEAIVQELMEAGKTIEDARLGGTSGCVETGCFGKEAYVLTGYMNIPKILELTLNNGYDPISKKQIGIETGDPRNFQSYEELFEAFKKQLHYMIDIKIEGNAVIENICAKHMPCPLMSTIVDDCIEKGKDYQRGGARYNTRYIQGVGIGTITDSLTAIKYNVFDKKKFDMDTLLKALDANFEGYEAILNLVSNKTPKYGNDDDYADEIMQEIFNAYYNEVTGRPTVCGGEYRVDMLPTTCHIYFGEIMGASPNGRLCAKPVSEGISPEKGGDTNGPTAVIKSCAKMDHIKTGGTLLNQRFAPSVVQGEKGLDNMANLVRAYFNMDGHHIQFNVFDKNVLLEAQKNPQDYKDLIVRVAGYSDHFNNLSRTLQDEIIGRTEQTF
In the case of B2, the Km (purified protein [3]) is reported as 1.2 ± 0.1 mM and the kcat (purified protein [3]) is reported as 45 ± 1 s⁻¹.
